Results: article doi:10.1101/2021.01.08.425906

Target: CagFbFP-I52T-Q148K (Chloroflexus aggregans) (UniProt B8GAY9)
Assay: crystal structure

stoichiometry N: 2
Substance: CagFbFP-I52T-Q148K (from UniProt B8GAY9 47-153) (domain or fragment)
